From patent publication US20250340652A1 (CHENGDU DI AO PHARMACEUTICAL GROUP, published 2025)
Where a chain is given by its changes, count along the chain named. Names may count otherwise.

Columns and labels:
[1] = molecular target: T1, CC1H, major antigenic region of PLA2R (human, UniProt Q13018 21-367); experiment: indirect ELISA, CC1h coated at 2 µg/mL, anti-human IgG Fc HRP, ΔOD450
T1 construct: Secreted from CHO-S cells, purified on Ni column; also called CCIh
Method: The human anti-human PLA2R antibody after phage screening and expression in Example 2 was measured in terms of the ability of binding to CC1h using the indirect ELISA method.
(§1) 30 μL of CC1h (2 μg/mL, diluted with 1*PBS) was added to the reaction wells of the ELISA plate, and the plate was sealed and incubated at 4° C. overnight. The plate was washed with PBST for 3 times, and the liquid in the wells was discarded. 5% PBSM was added to block the ELISA plate at room temperature for 2 hours. The plate was washed with PBST for 3 times by adding 30 μL of Abs (diluted with 1*PBS) to each well of the ELISA plate, and the plate was incubated at room temperature for 60 min. The plate was washed with PBST for 3 times, 30 μL of anti-human IgG Fc HRP (diluted with 1% PBSM at a ratio of 1:8000) was added to each well, and incubated at room temperature for 60 min. TMB was added and the reaction was stopped with 2M blocking solution and the OD value was detected at 450 nm. Recombinant Ipilimumab (Sanyou Biopharmaceuticals Co., Ltd.) was used as a negative control. The test results were illustrated in Table 2 as well as FIG. 4 and FIG. 5.

[2] = molecular target: T1, CC1H, major antigenic region of PLA2R; experiment: indirect ELISA, CC1h coated at 2 ug/mL, anti-human IgG Fc HRP
Method: as §1

[3] = molecular target: T2, CC1H-Biotin (human, UniProt Q13018 21-367, biotin by EZ-Link Sulfo-NHS-LC-Biotin, 1.80 mol Biotin/mol protein; sites not given); experiment: BLI (Octet N1), CC1H-Biotin on SA sensor, antibody 76.6-8.5 nM
T2 construct: also called biotin-labeled CC1H
Method: Sartorius Octet® N1 molecular interaction instrument was used, the SA sensor (Sartorius, Octet® Streptavidin (SA) Biosensor, 18-5019) was selected.
The sensor was immersed in a PBSTB buffer (0.02% Tween-20 and 0.1% BSA were added in the PBS buffer) to be pre-wetted for 10 min or longer, and loaded onto the molecular interaction instrument.
The association constant (Ka), dissociation constant (Kd), and affinity constant (KD) were calculated and illustrated in Table 5 for details.

B1: A22 (antibody, human IgG4, kappa, V domains shown)
VH: EVQLVESGAEVKKPGSSVKVSCKASGGTFSSYAISWVRQAPGQGLEWMGGIIPIFGTANYAQKFQGRVTITADESTSTAYMELSSLRSEDTAVYYCAFTSGSYYYFDYWGQGTLVTVSS
VL: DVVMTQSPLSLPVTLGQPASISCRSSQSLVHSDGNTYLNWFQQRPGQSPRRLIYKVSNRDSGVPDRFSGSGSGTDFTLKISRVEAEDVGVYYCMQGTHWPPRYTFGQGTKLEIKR
notes: also called P59370
- binding result [1]: no binding

B2: B44 (antibody, human IgG4, kappa, V domains shown)
VH: QVQLVQSGAEVKKPGASVKVSCKASGYTFTSYYMHWVRQAPGQGLEWMGIINPSGGSTSYAQKFQGRVTMTRDTSTSTVYMELSSLRSEDTAVYYCARGVSRRGAFDIWGQGTMVTVSS
VL: DVVMTQSPLSLPVTPGEPASISCRSSQSLLHRSGYNYLDWYVQKPGQSPQLLIYLGSIRAVGVPDRFSGSASGTDFTLRISRVEAEDVGIYYCMQALQTPPAFGGGTKVEIKR
notes: also called P59386
- binding result [1]: no binding

B3: B145 (antibody, human IgG4, kappa, V domains shown)
VH: QLQLQESGPGLVKPSQTLSLTCTVSGGSISSGGYYWSWIRQHPGKGLEWIGYIYYSGSTYYNPSLKSRVTISVDTSKNQFSLKLSSVTAADTAVYYCARGKRDGYNYYFDYWGQGTLVTVSS
VL: DIVMTQSPSSLSASVGDRVTITCQASQDISNYLNWYQQKPGKAPKLLIYDASSLESGVPSKFSGSRSGTDFTLTISSLQPEDSATYYCQQYRSYPITFGGGTKVEIKR
notes: also called P59396
- binding result [1]: no binding

B4: A61 (antibody, human IgG4, kappa)
heavy: not shown
light: DIVMTQSPLSLPVTLGQPASISCRSSQSLVKSDGNTYLSWFQQRPGQSPRRLIYKVSNRDSGVPDRFSGSGSGTDFTLKISRVEAEDVGVYYCMQGTHWPPTFGPGTKVDIKRTVAAPSVFIFPPSDEQLKSGTASVVCLLNNFYPREAKVQWKVDNALQSGNSQESVTEQDSKDSTYSLSSTLTLSKADYEKHKVYACEVTHQGLSSPVTKSFNRGEC
notes: also called P59375
- EC50 [2]: 4.6 ng/mL
- Kd [3]: 0.0178 nM
- koff [3]: 1.89e-05 s⁻¹
- kon [3]: 1.06e+06 M⁻¹ s⁻¹

B5: A61 (IgG4SP) (antibody)
heavy: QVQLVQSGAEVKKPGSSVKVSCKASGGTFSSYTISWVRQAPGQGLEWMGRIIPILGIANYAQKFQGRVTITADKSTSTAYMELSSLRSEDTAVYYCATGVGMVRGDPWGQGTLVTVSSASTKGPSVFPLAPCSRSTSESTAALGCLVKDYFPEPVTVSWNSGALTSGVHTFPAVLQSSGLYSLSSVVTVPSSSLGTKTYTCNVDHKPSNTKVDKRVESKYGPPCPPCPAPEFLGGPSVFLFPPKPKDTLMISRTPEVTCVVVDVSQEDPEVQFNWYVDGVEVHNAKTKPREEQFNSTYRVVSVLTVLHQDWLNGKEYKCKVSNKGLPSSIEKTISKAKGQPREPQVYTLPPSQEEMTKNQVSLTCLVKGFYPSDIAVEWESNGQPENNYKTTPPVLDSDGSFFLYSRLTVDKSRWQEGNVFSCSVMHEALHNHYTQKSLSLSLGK
light: B4 light
notes: IgG4SP (S228P in the hinge, already in the heavy chain entry); also called A61SP; P62298
- EC50 [2]: 10.3 ng/mL
- Kd [3]: 0.126 nM
- koff [3]: 8.17e-05 s⁻¹
- kon [3]: 648000 M⁻¹ s⁻¹

B6: B90 (antibody, human IgG4, kappa)
heavy: not shown
light: DIQMTQSPSILSASVGDRVTLTCRASQSISSWLAWYQQTPGKAPRVLIYEASTLEVGVPSRFSGSGSGTDFTLTISSLQPEDFGTYFCQQYHTDSRTFGQGTILEIKRTVAAPSVFIFPPSDEQLKSGTASVVCLLNNFYPREAKVQWKVDNALQSGNSQESVTEQDSKDSTYSLSSTLTLSKADYEKHKVYACEVTHQGLSSPVTKSFNRGEC
notes: also called P59391
- EC50 [2]: 2.96 ng/mL
- Kd [3]: 0.841 nM
- koff [3]: 0.000512 s⁻¹
- kon [3]: 608000 M⁻¹ s⁻¹

B7: B90 (IgG4SP) (antibody)
heavy: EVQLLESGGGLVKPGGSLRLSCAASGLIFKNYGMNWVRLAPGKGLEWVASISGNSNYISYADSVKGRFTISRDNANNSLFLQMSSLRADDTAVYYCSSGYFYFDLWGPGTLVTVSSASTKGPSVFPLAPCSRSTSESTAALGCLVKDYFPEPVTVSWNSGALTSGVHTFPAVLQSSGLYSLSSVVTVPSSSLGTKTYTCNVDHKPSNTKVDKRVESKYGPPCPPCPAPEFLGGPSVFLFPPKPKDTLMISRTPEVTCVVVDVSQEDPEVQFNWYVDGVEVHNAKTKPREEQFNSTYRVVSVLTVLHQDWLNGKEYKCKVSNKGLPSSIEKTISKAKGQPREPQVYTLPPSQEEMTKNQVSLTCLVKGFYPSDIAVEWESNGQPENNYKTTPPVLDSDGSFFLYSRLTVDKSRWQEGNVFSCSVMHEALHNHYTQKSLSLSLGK
light: B6 light
notes: IgG4SP (S228P in the hinge, already in the heavy chain entry); also called B90SP; P62303
- EC50 [2]: 19.5 ng/mL
- Kd [3]: 6.59 nM
- koff [3]: 0.000639 s⁻¹
- kon [3]: 97000 M⁻¹ s⁻¹

B8: B156 (antibody, human IgG4, kappa)
heavy: not shown
light: DIQLTQSPSSLSASIGDRVTITCRASQGISSFLAWYQQKPGKAPQLLIYAASTLQSGVPSRFSGSGSGTEFTLTISSLQPEDFATYYCQQFKIYPLTFGGGTKVEVKRTVAAPSVFIFPPSDEQLKSGTASVVCLLNNFYPREAKVQWKVDNALQSGNSQESVTEQDSKDSTYSLSSTLTLSKADYEKHKVYACEVTHQGLSSPVTKSFNRGEC
notes: also called P59397
- EC50 [2]: 10.5 ng/mL
- Kd [3]: 0.242 nM
- koff [3]: 0.000125 s⁻¹
- kon [3]: 516000 M⁻¹ s⁻¹

B9: A156 (antibody, human IgG4, kappa)
heavy: not shown
light: AIQLTQSPSSLSASVGDRVTITCRASQGISSYLAWYQQKPGKAPKLLIFAASLLQRGVPSRFSGSGFGTDFTLTISGLQPEDFATYFCQQFNTYPITFGGGTKVEIKRTVAAPSVFIFPPSDEQLKSGTASVVCLLNNFYPREAKVQWKVDNALQSGNSQESVTEQDSKDSTYSLSSTLTLSKADYEKHKVYACEVTHQGLSSPVTKSFNRGEC
notes: also called P59378
- EC50 [2]: 6.9 ng/mL
- Kd [3]: 0.158 nM
- koff [3]: 0.000102 s⁻¹
- kon [3]: 644000 M⁻¹ s⁻¹

B10: A156 (IgG4SP) (antibody)
heavy: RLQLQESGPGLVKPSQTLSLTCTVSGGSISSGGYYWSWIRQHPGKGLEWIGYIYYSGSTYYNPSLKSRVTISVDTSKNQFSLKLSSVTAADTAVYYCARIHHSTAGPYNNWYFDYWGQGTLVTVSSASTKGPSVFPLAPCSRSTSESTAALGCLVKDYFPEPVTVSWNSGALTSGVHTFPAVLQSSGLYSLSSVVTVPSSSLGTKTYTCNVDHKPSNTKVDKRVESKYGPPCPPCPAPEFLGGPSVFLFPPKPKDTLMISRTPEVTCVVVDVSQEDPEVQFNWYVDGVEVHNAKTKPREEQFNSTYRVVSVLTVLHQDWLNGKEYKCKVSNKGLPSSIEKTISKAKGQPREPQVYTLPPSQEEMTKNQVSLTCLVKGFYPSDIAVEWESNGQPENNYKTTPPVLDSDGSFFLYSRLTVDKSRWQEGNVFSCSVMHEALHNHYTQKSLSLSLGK
light: B9 light
notes: IgG4SP (S228P in the hinge, already in the heavy chain entry); also called A156SP; P62300
- EC50 [2]: 14.7 ng/mL
- Kd [3]: 0.456 nM
- koff [3]: 0.000169 s⁻¹
- kon [3]: 371000 M⁻¹ s⁻¹

B11: B156 (IgG4SP) (antibody)
heavy: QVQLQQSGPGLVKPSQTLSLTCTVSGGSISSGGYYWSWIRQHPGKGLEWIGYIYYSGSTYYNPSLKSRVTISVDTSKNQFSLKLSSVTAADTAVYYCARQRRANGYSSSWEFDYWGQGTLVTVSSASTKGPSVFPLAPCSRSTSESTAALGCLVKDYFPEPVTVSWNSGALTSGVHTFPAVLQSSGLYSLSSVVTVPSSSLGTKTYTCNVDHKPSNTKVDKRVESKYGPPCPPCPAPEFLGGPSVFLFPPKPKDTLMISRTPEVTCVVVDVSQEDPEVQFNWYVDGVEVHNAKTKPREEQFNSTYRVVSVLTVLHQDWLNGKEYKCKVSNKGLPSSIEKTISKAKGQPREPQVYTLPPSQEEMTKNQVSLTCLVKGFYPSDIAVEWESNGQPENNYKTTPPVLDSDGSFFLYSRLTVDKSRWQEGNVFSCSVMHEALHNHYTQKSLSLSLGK
light: B8 light
notes: IgG4SP (S228P in the hinge, already in the heavy chain entry); also called B156SP; P62304
- EC50 [2]: 8.12 ng/mL
- Kd [3]: < 0.001 nM
- koff [3]: < 1e-07 s⁻¹
- kon [3]: 654000 M⁻¹ s⁻¹

B12: A21 (antibody, human IgG4, kappa, V domains shown)
VH: EVHLVESGPELVRPGASVTLSCKASGYTFTDYEMHWVKQTPVHGLEWIGAIDPETGGTAYNQKFKGKATLTADKSSSTAYMELRSLTSEDSAVYYCTTTYGNYWYFDVWGAGTLVTVSS
VL: DIQLTQSPSSVSASVGDRVTITCRASQNIENWLAWYQQKPGKAPKLLIYATSRLENDVPSRFSGSRSGTEFILTISSLQPEDFATYYCHQANGFPWTFGPGTKVDIKR
notes: also called P59369
- EC50 [2]: 8.49 ng/mL

B13: A23 (antibody, human IgG4, kappa, V domains shown)
VH: QVQLVQSGAEVKKPGSSVKVSCKASGGTFSSYAISWVRQAPGQGLEWMGGIIPIFGTANYAQKFQGRVTITADESTSTAYMELSSLRSEDTAVYYCARGGGGRGMTSDWGQGTLVTVSS
VL: NIQLTQSPSSLSASVGDRVTITCRASQDISNYLAWFQQKPGKAPKSLIYAASSLQSGVPSRFSGSWSGTDFTLTISSLQPEDIATYYCQQYKRYPFIFGQGTKLEIKR
notes: also called P59371
- EC50 [2]: 27.6 ng/mL

B14: A26 (antibody, human IgG4, kappa, V domains shown)
VH: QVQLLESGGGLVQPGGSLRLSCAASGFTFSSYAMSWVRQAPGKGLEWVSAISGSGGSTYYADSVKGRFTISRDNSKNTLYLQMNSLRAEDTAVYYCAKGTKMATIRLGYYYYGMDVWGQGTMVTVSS
VL: DIVMTQSPLSLPVTPGEPASISCRSSQSLLHSNGRNYLDWYLQKPGQSPQLLIYLGSNRASGVSDRFSASGSGTDFTLQISRVEAEDVGIYYCMQALQTPWTFGQGTKVEVKR
notes: also called P59372
- EC50 [2]: 16 ng/mL

B15: A44 (antibody, human IgG4, kappa, V domains shown)
VH: B3 VH with L2V, G100W, K101G, D103G, Y105S, N106S, Y107W, Y108R, Y111I, L117M
VL: AIQMTQSPSSLSASVGDRVTITCRASQALTYTLAWYQQKPGKAPRLLIHDASSLESGVPSRFSGSGSGTDFTLTITSLQPEDFATYYCQQFRSYPLTFGGGTKVEIKR
notes: also called P59373
- EC50 [2]: 4.79 ng/mL

B16: A53 (antibody, human IgG4, kappa, V domains shown)
VH: EVQLLESGPGLVKPSQTLSLTCTVSGGSISSGGYYWSWIRQHPGKGLEWIGYIYYSGSTYYNPSLKSRVTISVDTSKNQFSLKLSSVTAADTAVYYCARDSRGRSYGMDVWGQGTMVTVSS
VL: DIQMTQSPSSLSASVGDRVTITCRASQSINNYLNWYQEKPGKAPKLLIYAASSLQSGVPSRFSGSGSGTDFTLTISSLQPEDFATYYCQQSYSYPFTFGPGTKVDIKR
notes: also called P59374
- EC50 [2]: 4.03 ng/mL
